The text below walks through data of PMC4967302.

For orientation: Ki means a dissociation constant, usually derived from enzyme kinetics or from competition with a known ligand. One may read the Kd as the equilibrium constant for the complex coming apart.

Assay [1] deals with CD4 exposed at the surface of HEK 293T cells (UniProt P01730). The experiment in a line: flow cytometry on cells. A general note: In flow cytometry, cells or beads pass a laser one at a time.
For assay [2], the target named is CCR5 in crude membranes from CCR5-expressing HEK 293T cells (UniProt P51681). The experiment in a line: radioligand binding; equilibrium saturation binding of 35S-labeled gp120 to crude membranes from CCR5-expressing HEK 293T cells, room temperature, in the presence of 200 nM soluble CD4; non-specific binding measured with 10 µM maraviroc; one-site binding model.
Chain of UniProt P51681 (P51681 whole entry): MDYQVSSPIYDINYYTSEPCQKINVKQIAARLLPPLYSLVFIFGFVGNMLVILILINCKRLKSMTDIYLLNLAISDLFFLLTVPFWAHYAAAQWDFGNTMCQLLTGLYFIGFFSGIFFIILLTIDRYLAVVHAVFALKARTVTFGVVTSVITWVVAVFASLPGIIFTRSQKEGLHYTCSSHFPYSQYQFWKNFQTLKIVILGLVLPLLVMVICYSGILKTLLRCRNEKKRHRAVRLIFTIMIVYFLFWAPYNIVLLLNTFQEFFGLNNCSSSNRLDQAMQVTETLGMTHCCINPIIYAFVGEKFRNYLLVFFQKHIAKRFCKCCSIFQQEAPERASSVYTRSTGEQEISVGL

With “purified soluble wt B gp120 (domain or fragment)”, the inhibition constant (Ki) in assay [1] turned out to be 3.9 nM. Also, the equilibrium dissociation constant (Kd) in assay [2] is 8.4 nM.
